Measurements as given in paper PMC9482650, “Quantitative fragmentomics allow affinity mapping of interactomes” (Nature Communications, 2022).

T1: HTRA3, P83110
T1 sequence (P83110 354-453, limits assumed, looked up): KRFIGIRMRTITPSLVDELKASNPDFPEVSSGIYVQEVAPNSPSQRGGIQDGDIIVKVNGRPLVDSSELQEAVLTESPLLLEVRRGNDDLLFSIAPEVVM

T2: APBA1_1, Q02410
T2 sequence (Q02410 651-752, limits assumed, looked up): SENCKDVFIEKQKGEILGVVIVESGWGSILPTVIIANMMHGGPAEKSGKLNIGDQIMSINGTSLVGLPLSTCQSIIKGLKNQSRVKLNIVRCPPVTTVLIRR

T3: NHERF3_3, Q5T2W1
T3 sequence (Q5T2W1 238-333, limits assumed, looked up): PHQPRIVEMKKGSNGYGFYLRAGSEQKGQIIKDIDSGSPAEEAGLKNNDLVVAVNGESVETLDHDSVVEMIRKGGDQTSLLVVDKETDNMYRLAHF

T4: ARHGEF11, O15085
T4 sequence (O15085 42-136, limits assumed, looked up): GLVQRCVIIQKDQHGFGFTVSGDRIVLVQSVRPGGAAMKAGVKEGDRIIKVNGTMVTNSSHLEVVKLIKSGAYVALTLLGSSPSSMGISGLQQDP

T5: RHPN1, Q8TCX5
T5 sequence (Q8TCX5 508-602, limits assumed, looked up): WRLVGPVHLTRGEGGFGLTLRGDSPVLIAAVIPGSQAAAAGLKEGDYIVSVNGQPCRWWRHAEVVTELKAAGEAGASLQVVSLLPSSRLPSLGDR

T6: FRMPD1, Q5SYB0
T6 sequence (Q5SYB0 52-145, limits assumed, looked up): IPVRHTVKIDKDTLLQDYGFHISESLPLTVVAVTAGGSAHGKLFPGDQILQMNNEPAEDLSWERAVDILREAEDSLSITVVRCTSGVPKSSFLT

T7: SNTA1, Q13424
T7 sequence (Q13424 82-180, limits assumed, looked up): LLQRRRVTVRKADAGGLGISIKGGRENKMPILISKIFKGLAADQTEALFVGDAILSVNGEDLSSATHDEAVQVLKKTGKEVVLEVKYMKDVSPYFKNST

T8: DLG3_2, Q92796
T8 sequence (Q92796 221-321, limits assumed, looked up): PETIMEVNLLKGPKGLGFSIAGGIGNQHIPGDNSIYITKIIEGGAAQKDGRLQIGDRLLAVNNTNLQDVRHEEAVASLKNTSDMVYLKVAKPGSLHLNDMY

T9: LIN7B, Q9HAP6
T9 sequence (Q9HAP6 88-185, limits assumed, looked up): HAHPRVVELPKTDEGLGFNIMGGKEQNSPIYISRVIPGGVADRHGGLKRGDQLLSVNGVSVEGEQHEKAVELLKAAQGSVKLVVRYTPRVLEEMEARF


Key:
Test in all cases: holdup assay
Set-up in all cases: key: below the threshold = too weak to quantify, mostly under pKd 3.1 to 4
Details in all cases: plain residues with an end cap or a label only (N-terminal biotin on a linker: ado-ado)
HTRA3, P83110 = target: T1, HTRA3, P83110
Inadl_4, Q8NI35 = target: Inadl_4, Q8NI35
Inadl_6, Q8NI35 = target: Inadl_6, Q8NI35
FRMPD2_3, Q68DX3 = target: FRMPD2_3, Q68DX3
GORASP1, Q9BQQ3 = target: GORASP1, Q9BQQ3
GIPC2, Q8TF65 = target: GIPC2, Q8TF65
PARD3_3, Q8TEW0 = target: PARD3_3, Q8TEW0
NHERF4_4, Q86UT5 = target: NHERF4_4, Q86UT5
DLG4_2, P78352 = target: DLG4_2, P78352
APBA1_1, Q02410 = target: T2, APBA1_1, Q02410
NHERF3_3, Q5T2W1 = target: T3, NHERF3_3, Q5T2W1
Inadl_10, Q8NI35 = target: Inadl_10, Q8NI35
MAGI3_2, Q5TCQ9 = target: MAGI3_2, Q5TCQ9
LNX1_3, Q8TBB1 = target: LNX1_3, Q8TBB1
MAGI2_3, Q86UL8 = target: MAGI2_3, Q86UL8
FRMPD2_1, Q68DX3 = target: FRMPD2_1, Q68DX3
MAGI1_2, Q96QZ7 = target: MAGI1_2, Q96QZ7
Inadl_8, Q8NI35 = target: Inadl_8, Q8NI35
ARHGEF11, O15085 = target: T4, ARHGEF11, O15085
RHPN1, Q8TCX5 = target: T5, RHPN1, Q8TCX5
FRMPD1, Q5SYB0 = target: T6, FRMPD1, Q5SYB0
SNTA1, Q13424 = target: T7, SNTA1, Q13424
DLG3_2, Q92796 = target: T8, DLG3_2, Q92796
GOPC, Q9HD26 = target: GOPC, Q9HD26
LNX1_2, Q8TBB1 = target: LNX1_2, Q8TBB1
Inadl_1, Q8NI35 = target: Inadl_1, Q8NI35
LIN7B, Q9HAP6 = target: T9, LIN7B, Q9HAP6
MAST2, Q6P0Q8 = target: MAST2, Q6P0Q8
MAST2, Q6P0Q8, sequence (Q6P0Q8 1099-1202): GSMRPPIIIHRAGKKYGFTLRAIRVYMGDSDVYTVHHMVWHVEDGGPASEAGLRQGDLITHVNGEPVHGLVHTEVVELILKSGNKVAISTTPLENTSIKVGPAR

FRMPD2_1, Q68DX3, sequence (Q68DX3 770-861): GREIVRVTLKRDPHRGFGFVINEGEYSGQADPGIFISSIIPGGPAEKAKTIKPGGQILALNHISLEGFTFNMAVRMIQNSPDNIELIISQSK
DLG4_2, P78352, sequence (P78352 155-259): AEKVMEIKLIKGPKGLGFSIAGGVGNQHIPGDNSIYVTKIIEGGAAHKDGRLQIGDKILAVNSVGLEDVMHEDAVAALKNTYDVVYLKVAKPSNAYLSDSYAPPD
FRMPD2_3, Q68DX3, sequence (Q68DX3 1073-1166): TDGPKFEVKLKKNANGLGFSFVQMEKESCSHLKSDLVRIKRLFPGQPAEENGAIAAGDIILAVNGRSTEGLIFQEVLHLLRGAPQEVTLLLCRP
LNX1_2, Q8TBB1, sequence (Q8TBB1 371-470): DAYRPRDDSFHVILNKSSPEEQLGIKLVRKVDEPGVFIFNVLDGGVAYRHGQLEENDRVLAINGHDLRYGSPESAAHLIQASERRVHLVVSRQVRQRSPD
Inadl_10, Q8NI35, sequence (Q8NI35 1673-1763): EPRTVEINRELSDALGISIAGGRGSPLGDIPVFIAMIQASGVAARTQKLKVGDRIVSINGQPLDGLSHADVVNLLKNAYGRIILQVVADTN
Inadl_6, Q8NI35, sequence (Q8NI35 1058-1167): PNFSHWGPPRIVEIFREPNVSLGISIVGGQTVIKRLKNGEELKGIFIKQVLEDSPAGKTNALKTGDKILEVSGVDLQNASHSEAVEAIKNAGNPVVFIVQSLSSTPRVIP
NHERF4_4, Q86UT5, sequence (Q86UT5 464-550): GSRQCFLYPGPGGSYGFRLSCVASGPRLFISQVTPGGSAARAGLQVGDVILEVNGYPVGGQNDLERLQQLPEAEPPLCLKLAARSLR
PARD3_3, Q8TEW0, sequence (Q8TEW0 582-685): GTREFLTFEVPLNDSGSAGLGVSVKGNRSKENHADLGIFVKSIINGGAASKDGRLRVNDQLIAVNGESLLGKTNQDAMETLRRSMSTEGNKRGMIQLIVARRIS
MAGI1_2, Q96QZ7, sequence (Q96QZ7 456-580): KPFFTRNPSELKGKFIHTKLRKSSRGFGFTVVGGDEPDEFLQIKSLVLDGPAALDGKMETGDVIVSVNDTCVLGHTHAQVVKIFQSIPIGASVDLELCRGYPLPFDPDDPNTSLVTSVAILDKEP
LNX1_3, Q8TBB1, sequence (Q8TBB1 500-596): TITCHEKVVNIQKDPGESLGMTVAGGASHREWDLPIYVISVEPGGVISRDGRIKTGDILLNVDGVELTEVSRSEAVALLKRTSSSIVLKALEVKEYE
Inadl_1, Q8NI35, sequence (Q8NI35 113-229): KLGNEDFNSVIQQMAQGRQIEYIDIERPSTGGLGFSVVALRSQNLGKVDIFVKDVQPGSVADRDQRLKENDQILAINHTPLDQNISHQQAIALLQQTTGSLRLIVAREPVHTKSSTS
GORASP1, Q9BQQ3, sequence (Q9BQQ3 1-208): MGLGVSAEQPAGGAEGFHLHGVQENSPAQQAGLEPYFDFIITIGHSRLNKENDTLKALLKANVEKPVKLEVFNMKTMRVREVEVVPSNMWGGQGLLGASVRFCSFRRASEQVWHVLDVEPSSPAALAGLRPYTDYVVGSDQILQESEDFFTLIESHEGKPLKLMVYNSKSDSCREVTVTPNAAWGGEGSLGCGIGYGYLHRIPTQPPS
Inadl_4, Q8NI35, sequence (Q8NI35 547-651): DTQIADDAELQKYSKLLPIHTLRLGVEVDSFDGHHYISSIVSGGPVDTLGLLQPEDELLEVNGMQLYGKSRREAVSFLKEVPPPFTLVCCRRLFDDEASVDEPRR
MAGI2_3, Q86UL8, sequence (Q86UL8 600-682): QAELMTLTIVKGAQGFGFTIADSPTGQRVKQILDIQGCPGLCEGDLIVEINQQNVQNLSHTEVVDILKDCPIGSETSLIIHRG
Inadl_8, Q8NI35, sequence (Q8NI35 1425-1530): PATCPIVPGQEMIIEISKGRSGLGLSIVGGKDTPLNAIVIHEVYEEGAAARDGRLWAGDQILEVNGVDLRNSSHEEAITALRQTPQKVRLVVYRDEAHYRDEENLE
GIPC2, Q8TF65, sequence (Q8TF65 112-203): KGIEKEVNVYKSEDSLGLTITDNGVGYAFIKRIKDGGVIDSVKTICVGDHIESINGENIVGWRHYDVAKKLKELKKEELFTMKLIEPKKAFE
MAGI3_2, Q5TCQ9, sequence (Q5TCQ9 398-503): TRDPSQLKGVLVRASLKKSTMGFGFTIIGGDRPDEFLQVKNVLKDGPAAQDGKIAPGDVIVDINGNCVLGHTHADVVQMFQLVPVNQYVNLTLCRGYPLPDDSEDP

| Binder | pKd (HTRA3, P83110) | pKd (Inadl_4, Q8NI35) | pKd (Inadl_6, Q8NI35) | pKd (FRMPD2_3, Q68DX3) | pKd (GORASP1, Q9BQQ3) | pKd (GIPC2, Q8TF65) | pKd (PARD3_3, Q8TEW0) | pKd (NHERF4_4, Q86UT5) | pKd (DLG4_2, P78352) | pKd (APBA1_1, Q02410) | pKd (NHERF3_3, Q5T2W1) | pKd (Inadl_10, Q8NI35) | pKd (MAGI3_2, Q5TCQ9) | pKd (LNX1_3, Q8TBB1) | pKd (MAGI2_3, Q86UL8) | pKd (FRMPD2_1, Q68DX3) | pKd (MAGI1_2, Q96QZ7) | pKd (Inadl_8, Q8NI35) | pKd (ARHGEF11, O15085) | pKd (RHPN1, Q8TCX5) | other results |
| --- | --- | --- | --- | --- | --- | --- | --- | --- | --- | --- | --- | --- | --- | --- | --- | --- | --- | --- | --- | --- | --- |
| LPHPHSTTRV [NLGN2, Q8NFZ4] | below the threshold | below the threshold | below the threshold | below the threshold | 3.58 | below the threshold | below the threshold | below the threshold | 3.86 | below the threshold | below the threshold | below the threshold | 5.12 | below the threshold | 4.24 | below the threshold | 4.13 | 4.39 | 3.96 | 3.83 | pKd (FRMPD1, Q5SYB0): below the threshold; pKd (SNTA1, Q13424): 4.18; pKd (DLG3_2, Q92796): 3.96; pKd (GOPC, Q9HD26): 4.28; pKd (LNX1_2, Q8TBB1): below the threshold; pKd (Inadl_1, Q8NI35): below the threshold; pKd (LIN7B, Q9HAP6): 3.58; pKd (MAST2, Q6P0Q8): 5.19 |
| PAPSSGKDYV [CLDN1, O95832] | 3.95 | below the threshold | below the threshold | below the threshold | below the threshold | below the threshold | below the threshold | below the threshold | below the threshold | below the threshold | below the threshold | below the threshold | below the threshold | below the threshold | below the threshold | below the threshold | below the threshold | 3.92 | below the threshold | below the threshold | pKd (FRMPD1, Q5SYB0): below the threshold; pKd (SNTA1, Q13424): below the threshold; pKd (DLG3_2, Q92796): below the threshold; pKd (GOPC, Q9HD26): below the threshold; pKd (LNX1_2, Q8TBB1): below the threshold; pKd (Inadl_1, Q8NI35): below the threshold; pKd (LIN7B, Q9HAP6): below the threshold; pKd (MAST2, Q6P0Q8): 3.84 |
| QGLAERISVL [PRKD2, Q9BZL6] | below the threshold | below the threshold | 4.02 | below the threshold | 4.08 | below the threshold | 3.68 | 3.97 | 3.48 | below the threshold | below the threshold | below the threshold | below the threshold | below the threshold | below the threshold | below the threshold | below the threshold | 3.8 | 4.77 | 4.62 | pKd (FRMPD1, Q5SYB0): below the threshold; pKd (SNTA1, Q13424): 4.71; pKd (DLG3_2, Q92796): below the threshold; pKd (GOPC, Q9HD26): 3.98; pKd (LNX1_2, Q8TBB1): below the threshold; pKd (Inadl_1, Q8NI35): below the threshold; pKd (LIN7B, Q9HAP6): below the threshold; pKd (MAST2, Q6P0Q8): 5.53 |
| EVEEFPETSV [TRPV3, Q8NET8] | below the threshold | 3.49 | 4.18 | below the threshold | 3.54 | 4.32 | 3.85 | below the threshold | 4.4 | below the threshold | below the threshold | below the threshold | 4.27 | below the threshold | 4.06 | 3.59 | 3.63 | 3.86 | 4.79 | 4.68 | pKd (FRMPD1, Q5SYB0): below the threshold; pKd (SNTA1, Q13424): 5.22; pKd (DLG3_2, Q92796): 4.22; pKd (GOPC, Q9HD26): 4.22; pKd (LNX1_2, Q8TBB1): 3.59; pKd (Inadl_1, Q8NI35): below the threshold; pKd (LIN7B, Q9HAP6): 4.3; pKd (MAST2, Q6P0Q8): 5.5 |
